# Patent US20140161821A1, “TREATMENT WITH ANTI-PCSK9 ANTIBODIES” (PFIZER INC., priority 2011, published 2014)
# B1: L1L3: humanized (<5% murine residues) monoclonal PCSK9 antagonist antibody that binds to secreted PCSK9; VH SEQ ID NO: 11, VL SEQ ID NO: 12 (antibody, V domains shown)
# VH: QVQLVQSGAEVKKPGASVKVSCKASGYTFTSYYMHWVRQAPGQGLEWMGEISPFGGRTNYNEKFKSRVTMTRDTSTSTVYMELSSLRSEDTAVYYCARERPLYASDLWGQGTTVTVSS
# VL: DIQMTQSPSSLSASVGDRVTITCRASQGISSALAWYQQKPGKAPKLLIYSASYRYTGVPSRFSGSGSGTDFTFTISSLQPEDIATYYCQQRYSLWRTFGQGTKLEIK
# modifications: heavy chain variable region; light chain variable region
# Experiments:
# [1] = Example 3 clinical study, single IV dose on stable atorvastatin: L1L3 pharmacokinetics; settings: geometric mean
# Description: Infusion rates were carefully controlled by an infusion device per protocol. Atorvastatin (40 mg daily) was administered as described below in the study protocol. Subjects self-administered atorvastatin during their participation in this study except from Days 1 through 7 during their confinement to the clinic where the same dose was administered by qualified site personnel.
# The subjects returned to the clinical research unit for subsequent visits.
# (§1) In the study, the incidence of subjects meeting toxicity or intolerable dose criteria was measured. Incidence of treatment emergent adverse events (TEAEs) categorized by severity and causal relationship to study drug was also be measured. The timeframe for measurement of each of the above outcomes was two months.
# Dose Administration: subjects took sponsor-provided atorvastatin (40 mg). […] Subjects fasted at least 10 hours prior to the lipid panel blood sample on Days 5 and 6.
# PCSK9 [2] = molecular target: T1, PCSK9 (Mus musculus, UniProt Q80W65); assay: Serum cholesterol in C57BL/6 mice after single IP dose; format: in vivo; settings: 10 mg/kg single IP
# T1 construct: endogenous in cells; host or cells: live C57BL/6 mice (in vivo, serum PCSK9)
# T1 sequence (Q80W65 156-694): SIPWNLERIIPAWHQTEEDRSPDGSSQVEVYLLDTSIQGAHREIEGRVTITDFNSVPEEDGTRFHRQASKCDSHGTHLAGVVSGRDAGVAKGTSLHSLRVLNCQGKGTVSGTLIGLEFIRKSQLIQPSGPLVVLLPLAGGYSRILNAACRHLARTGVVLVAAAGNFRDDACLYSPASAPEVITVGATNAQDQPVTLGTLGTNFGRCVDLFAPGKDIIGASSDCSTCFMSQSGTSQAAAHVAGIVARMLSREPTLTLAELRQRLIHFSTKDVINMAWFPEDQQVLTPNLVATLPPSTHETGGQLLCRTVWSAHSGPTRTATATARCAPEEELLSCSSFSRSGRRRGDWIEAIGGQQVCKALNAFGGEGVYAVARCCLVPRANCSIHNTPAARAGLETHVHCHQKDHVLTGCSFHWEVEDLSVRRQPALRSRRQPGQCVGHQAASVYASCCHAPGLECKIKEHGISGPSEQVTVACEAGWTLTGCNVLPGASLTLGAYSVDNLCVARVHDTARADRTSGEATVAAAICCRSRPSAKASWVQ
# T1 sequence (Q80W65 35-155 partner limits assumed): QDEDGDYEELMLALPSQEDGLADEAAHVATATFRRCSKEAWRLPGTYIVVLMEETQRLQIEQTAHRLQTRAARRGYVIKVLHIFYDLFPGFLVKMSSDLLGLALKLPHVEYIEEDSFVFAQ
# Description: Serum cholesterol levels recovered to 69 mg/dL by day 7 post-treatment.
# [3] = Example 6 clinical study: safety and immunogenicity; format: in vivo, human; settings: IV every 4 weeks, stable daily statin
# Description: Subjects were seen periodically in the clinic for safety assessments and collection of blood for safety labs, lipid profiles, PK, PD, and immunogenicity samples. Telephone contacts were made prior to each visit to remind them of the 10-hour fasting requirements, during screening and on Day 3 to assess adverse events and document the contact in the subject's source document. […] Infusion rates were carefully controlled by an infusion device per protocol. Infusions were administered as a single infusion over approximately 60 minutes.
# [4] = Example 2 clinical study, single escalating IV doses: pharmacokinetics (NCA); format: in vivo, human
# Description: The subjects, investigator, and site personnel (except site personnel responsible for drug preparation) were blinded to treatment assignments, as was the CRO designee; while the Sponsor clinical research team was unblinded. The study was conducted in 6 planned cohorts of 8 subjects per cohort in an effort to seek a maximum tolerated dose or MTD (total of approximately 48 subjects). […] Doses were administered following an overnight fast as an intravenous infusion over 60 minutes. […] Infusions will be administered as a single infusion over 60 minutes. […]
# Drug was prepared by qualified unblinded site personnel and dispensed in a blinded fashion to the patient and immediate study staff.
# In addition, single PK samples were obtained on Days 4, 7, 14, 21, 28 and additional PK follow-up visit (if applicable). One sample was drawn at each time point.
# [5] = Example 2 clinical study: safety and adverse events; format: in vivo; settings: single IV 0.3-18 mg/kg
# Description: The study entailed a randomized, placebo-controlled, ascending, single dose study of L1L3. The subjects, investigator, and site personnel (except site personnel responsible for drug preparation) were blinded to treatment assignments, as was the CRO designee; while the Sponsor clinical research team was unblinded. The study was conducted in 6 planned cohorts of 8 subjects per cohort in an effort to seek a maximum tolerated dose or MTD (total of approximately 48 subjects). […] Doses were administered following an overnight fast as an intravenous infusion over 60 minutes. […] Infusions will be administered as a single infusion over 60 minutes.
# The dosing schedule was adjusted to allow administration of lower, intermediate, or higher doses to obtain a maximum tolerated dose and no effect dose. Each subject enrolled into the study, regardless of cohort assignment, received only one dose of study drug during their study participation.
# [6] = Example 3 clinical study: safety and adverse events; format: in vivo, human
# Description: as §1
# [7] = PK study, single bolus i.v. injection in cynomolgus monkeys, total antibody concentration; format: in vivo
# PCSK9 [8] = molecular target: T2, PCSK9 (Rattus norvegicus, UniProt P59996); assay: Dose-response of serum cholesterol and triglycerides in Sprague-Dawley rats, single IP dose; format: in vivo
# T2 construct: endogenous in cells; host or cells: live Sprague-Dawley rats (in vivo, serum PCSK9)
# T2 sequence (P59996 152-691): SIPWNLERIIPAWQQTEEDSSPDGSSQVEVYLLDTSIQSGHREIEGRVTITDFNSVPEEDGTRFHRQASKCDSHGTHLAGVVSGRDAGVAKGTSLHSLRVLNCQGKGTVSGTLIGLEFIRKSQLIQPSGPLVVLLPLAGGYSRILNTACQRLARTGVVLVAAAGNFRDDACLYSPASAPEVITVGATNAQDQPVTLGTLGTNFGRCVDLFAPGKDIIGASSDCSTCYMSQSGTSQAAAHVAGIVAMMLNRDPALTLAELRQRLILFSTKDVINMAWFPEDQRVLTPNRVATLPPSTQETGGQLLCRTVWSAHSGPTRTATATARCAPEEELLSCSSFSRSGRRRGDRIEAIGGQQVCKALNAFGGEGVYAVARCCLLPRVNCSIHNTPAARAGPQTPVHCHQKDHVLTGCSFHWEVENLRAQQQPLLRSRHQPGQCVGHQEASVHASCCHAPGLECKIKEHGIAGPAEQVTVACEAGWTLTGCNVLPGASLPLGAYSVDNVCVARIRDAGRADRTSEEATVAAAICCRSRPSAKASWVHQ
# Source text: The duration of the cholesterol repression was also dose dependent, ranging from 1 to 21 days.
# [9] = single IV 0.5 or 4 mg/kg + atorvastatin 40 mg daily
molecule,measurement,setting,value
B1,AUCinf,[1]; 0.5 mg/kg L1L3 + atorvastatin,46338 ng·days/mL
same,AUCt,[1]; 0.5 mg/kg L1L3 + atorvastatin,38310 ng·days/mL
same,CL,[1]; 0.5 mg/kg L1L3 + atorvastatin,10.8 mL/day/kg
same,Cmax,[1]; 0.5 mg/kg L1L3 + atorvastatin,13.827 µg/mL
same,Vss,[1]; 0.5 mg/kg L1L3 + atorvastatin,40.2 mL/kg
same,AUCinf,[1]; 4 mg/kg L1L3 + atorvastatin,777167 ng·days/mL
same,AUCt,[1]; 4 mg/kg L1L3 + atorvastatin,726337 ng·days/mL
same,CL,[1]; 4 mg/kg L1L3 + atorvastatin,5.2 mL/day/kg
same,Cmax,[1]; 4 mg/kg L1L3 + atorvastatin,105.048 µg/mL
same,Vss,[1]; 4 mg/kg L1L3 + atorvastatin,52.3 mL/kg
same,Serum cholesterol reduction vs saline treated controls,PCSK9 [2]; 48 hours post treatment,37%
same,Serum cholesterol levels,PCSK9 [2]; 4 days post-treatment,44 mg/dL
same,Serum cholesterol reduction vs control animals,PCSK9 [2]; 4 days post-treatment,47%
same,Serum cholesterol levels (recovered),PCSK9 [2]; day 7 post-treatment,69 mg/dL
same,Serum cholesterol levels,"PCSK9 [2]; normal diet, 48 hours post treatment",47 mg/dL
same,Anti-drug antibodies (ADA),[3],No subject had positive ADA
same,Safety and tolerability,[3],generally safe and well-tolerated
same,"Changes in LFTs, CK, ECGs, and BP",[3]; in most cases considered not related to treatment,"transient, mild in nature"
same,AUC(0-∞),"[4]; single IV 0.3 mg/kg, mean",34997.88 ng·days/mL
same,Cl,"[4]; single IV 0.3 mg/kg, mean",8.70 mL/day/kg
same,Cmax,"[4]; single IV 0.3 mg/kg, mean",10.31967 µg/mL
same,Half-life,"[4]; single IV 0.3 mg/kg, mean",2.74 days
same,Vss,"[4]; single IV 0.3 mg/kg, mean",31.77 mL/kg
same,AUC(0-∞),"[4]; single IV 0.3 mg/kg, median",33748.15 ng·days/mL
same,Cl,"[4]; single IV 0.3 mg/kg, median",8.92 mL/day/kg
same,Cmax,"[4]; single IV 0.3 mg/kg, median",10.5375 µg/mL
same,Half-life,"[4]; single IV 0.3 mg/kg, median",2.71 days
same,Vss,"[4]; single IV 0.3 mg/kg, median",30.74 mL/kg
same,AUC(0-∞),"[4]; single IV 1 mg/kg, mean",156399.94 ng·days/mL
same,Cl,"[4]; single IV 1 mg/kg, mean",6.58 mL/day/kg
same,Cmax,"[4]; single IV 1 mg/kg, mean",29.25183 µg/mL
same,Half-life,"[4]; single IV 1 mg/kg, mean",4.80 days
same,Vss,"[4]; single IV 1 mg/kg, mean",41.59 mL/kg
same,AUC(0-∞),"[4]; single IV 1 mg/kg, median",166736.58 ng·days/mL
same,Cl,"[4]; single IV 1 mg/kg, median",6.00 mL/day/kg
same,Cmax,"[4]; single IV 1 mg/kg, median",28.2315 µg/mL
same,Half-life,"[4]; single IV 1 mg/kg, median",4.77 days
same,Vss,"[4]; single IV 1 mg/kg, median",42.34 mL/kg
same,AUC(0-∞),"[4]; single IV 3 mg/kg, mean",709485.10 ng·days/mL
same,Cl,"[4]; single IV 3 mg/kg, mean",4.54 mL/day/kg
same,Cmax,"[4]; single IV 3 mg/kg, mean",96.7115 µg/mL
same,Half-life,"[4]; single IV 3 mg/kg, mean",8.74 days
same,Vss,"[4]; single IV 3 mg/kg, mean",49.06 mL/kg
same,AUC(0-∞),"[4]; single IV 3 mg/kg, median",728278.54 ng·days/mL
same,Cl,"[4]; single IV 3 mg/kg, median",4.12 mL/day/kg
same,Cmax,"[4]; single IV 3 mg/kg, median",100.6205 µg/mL
same,Half-life,"[4]; single IV 3 mg/kg, median",8.1 days
same,Vss,"[4]; single IV 3 mg/kg, median",48.94 mL/kg
same,AUC(0-∞),"[4]; single IV 6 mg/kg, mean",1446945.71 ng·days/mL
same,Cl,"[4]; single IV 6 mg/kg, mean",4.33 mL/day/kg
same,Cmax,"[4]; single IV 6 mg/kg, mean",175.85433 µg/mL
same,Half-life,"[4]; single IV 6 mg/kg, mean",8.36 days
same,Vss,"[4]; single IV 6 mg/kg, mean",60.45 mL/kg
same,AUC(0-∞),"[4]; single IV 6 mg/kg, median",1289916.44 ng·days/mL
same,Cl,"[4]; single IV 6 mg/kg, median",4.65 mL/day/kg
same,Cmax,"[4]; single IV 6 mg/kg, median",177.485 µg/mL
same,Half-life,"[4]; single IV 6 mg/kg, median",7.75 days
same,Vss,"[4]; single IV 6 mg/kg, median",61.33 mL/kg
same,AUC(0-∞),"[4]; single IV 12 mg/kg, mean",3768691.17 ng·days/mL
same,Cl,"[4]; single IV 12 mg/kg, mean",3.28 mL/day/kg
same,Cmax,"[4]; single IV 12 mg/kg, mean",353.96017 µg/mL
same,Half-life,"[4]; single IV 12 mg/kg, mean",20.53 days
same,Vss,"[4]; single IV 12 mg/kg, mean",72.25 mL/kg
same,AUC(0-∞),"[4]; single IV 12 mg/kg, median",3599992.39 ng·days/mL
same,Cl,"[4]; single IV 12 mg/kg, median",3.36 mL/day/kg
same,Cmax,"[4]; single IV 12 mg/kg, median",357.671 µg/mL
same,Half-life,"[4]; single IV 12 mg/kg, median",12.24 days
same,Vss,"[4]; single IV 12 mg/kg, median",57.52 mL/kg
same,AUC(0-∞),"[4]; single IV 18 mg/kg, mean",4812012.99 ng·days/mL
same,Cl,"[4]; single IV 18 mg/kg, mean",3.85 mL/day/kg
same,Cmax,"[4]; single IV 18 mg/kg, mean",532.44917 µg/mL
same,Half-life,"[4]; single IV 18 mg/kg, mean",12.97 days
same,Vss,"[4]; single IV 18 mg/kg, mean",65.46 mL/kg
same,AUC(0-∞),"[4]; single IV 18 mg/kg, median",4857618.28 ng·days/mL
same,Cl,"[4]; single IV 18 mg/kg, median",3.71 mL/day/kg
same,Cmax,"[4]; single IV 18 mg/kg, median",560.4635 µg/mL
same,Half-life,"[4]; single IV 18 mg/kg, median",11.76 days
same,Vss,"[4]; single IV 18 mg/kg, median",60.83 mL/kg
same,Discontinuation due to treatment emergent adverse events (TEAEs),[5],no subjects discontinued
same,Intensity of TEAEs,[5],majority of TEAEs were mild in intensity; none were severe
same,Serious adverse events,[5],no serious adverse events occurred
same,Discontinued subjects,[6]; [9],no discontinued subjects
same,Intensity of TEAEs,[6]; [9],none were severe in intensity
same,Serious adverse events (SAE),[6]; [9],"one serious adverse event (SAE), i.e. worsening of migraine headache, which was not drug-related"
same,Alanine aminotransferase (ALT) and/or aspartate aminotransferase (AST) elevation (TEAEs),"[6]; transient, without clinical signs/symptoms, all resolved within one week",greater than 3 ×ULN
same,Estimated β-phase half-life,[7]; single i.v. 0.1 mg/kg,0.67 days
same,Estimated β-phase half-life,[7]; single i.v. 1.0 mg/kg,1.91 days
same,Estimated β-phase half-life,[7]; single i.v. 3.0 mg/kg,2.33 days
same,Estimated β-phase half-life,[7]; single i.v. 10.0 mg/kg,3.49 days
same,Estimated β-phase half-life,[7]; single i.v. 100.0 mg/kg,5.25 days
same,"Non-fasting serum triglyceride levels, maximum increase",PCSK9 [8]; single IP 80 mg/kg,approximately three
same,"Serum cholesterol reduction, maximum effect","PCSK9 [8]; single IP 10 and 80 mg/kg, 48 hours post dosing",50%
